This passage reports IC50 results from patent US20050260730A1, “CDK2/cyclin A crystals and uses thereof” (priority 2003, published 2005).

Non-standard residues stand in square brackets, D forms with d. Phe(4-F) = N[C@@H](Cc1ccc(F)cc1)C(=O)O

For the experiment, the target named is cyclin A (human) (UniProt P20248). Kind of experiment: competitive cyclin A binding assay.

What is called IC50 is the midpoint of a concentration-inhibition curve.

In the case of H-RRL[Phe(4-F)]-NH2, the IC50 amounted to 19 µM.
